From patent publication US20070032419A1 (ONCOSCIENCE, published 2007)
Changes are numbered by the printed parent chain.

T1: tTF-GNGRAHA fusion polypeptide with N-terminal affinity tag
T1 chain: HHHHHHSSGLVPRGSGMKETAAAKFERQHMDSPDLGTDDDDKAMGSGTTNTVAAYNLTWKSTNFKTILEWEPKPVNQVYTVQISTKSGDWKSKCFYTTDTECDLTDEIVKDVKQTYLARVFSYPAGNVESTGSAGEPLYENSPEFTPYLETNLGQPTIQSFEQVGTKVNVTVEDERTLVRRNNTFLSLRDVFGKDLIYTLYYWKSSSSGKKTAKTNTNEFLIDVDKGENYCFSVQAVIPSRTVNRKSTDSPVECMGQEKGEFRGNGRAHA

T2: tTF-GCVLNGRMEC fusion polypeptide
T2 chain: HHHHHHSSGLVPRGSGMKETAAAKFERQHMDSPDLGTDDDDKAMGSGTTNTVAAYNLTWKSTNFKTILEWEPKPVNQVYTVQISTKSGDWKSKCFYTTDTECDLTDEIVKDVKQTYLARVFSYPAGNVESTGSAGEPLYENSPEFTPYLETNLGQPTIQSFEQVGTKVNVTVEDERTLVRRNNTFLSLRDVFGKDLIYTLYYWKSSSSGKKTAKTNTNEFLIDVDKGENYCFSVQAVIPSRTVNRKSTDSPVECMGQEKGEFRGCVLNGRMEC

T3: tTF-GALNGRSHAG fusion polypeptide
T3 chain: T2 chain with C265A, V266L, L267N, N268G, G269R, R270S, M271H, E272A, C273G

T4: tTF-GCNGRCVSGCAGRC fusion polypeptide
T4 chain: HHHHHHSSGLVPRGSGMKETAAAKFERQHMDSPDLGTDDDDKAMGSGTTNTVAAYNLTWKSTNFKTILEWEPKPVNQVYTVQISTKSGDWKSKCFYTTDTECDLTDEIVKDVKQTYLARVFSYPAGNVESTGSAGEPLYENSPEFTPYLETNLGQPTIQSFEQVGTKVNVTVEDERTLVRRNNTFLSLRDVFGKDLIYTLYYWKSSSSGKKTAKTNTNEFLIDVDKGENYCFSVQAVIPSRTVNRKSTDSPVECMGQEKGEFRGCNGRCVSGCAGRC

T5: truncated human tissue factor tTF1-218
T5 chain: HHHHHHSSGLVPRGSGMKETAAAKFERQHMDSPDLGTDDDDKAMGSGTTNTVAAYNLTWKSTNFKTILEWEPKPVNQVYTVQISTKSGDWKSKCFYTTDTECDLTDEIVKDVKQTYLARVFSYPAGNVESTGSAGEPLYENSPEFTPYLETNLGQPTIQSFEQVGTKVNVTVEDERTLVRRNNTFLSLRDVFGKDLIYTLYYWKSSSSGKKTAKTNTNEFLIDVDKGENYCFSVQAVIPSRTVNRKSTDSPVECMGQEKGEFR

T6: tTF-GCNGRCG fusion polypeptide
T6 chain: T1 chain with N265C, G266N, R267G, A268R, H269C, A270G

T7: tTF-GRGDSP fusion polypeptide with N-terminal affinity tag
T7 chain: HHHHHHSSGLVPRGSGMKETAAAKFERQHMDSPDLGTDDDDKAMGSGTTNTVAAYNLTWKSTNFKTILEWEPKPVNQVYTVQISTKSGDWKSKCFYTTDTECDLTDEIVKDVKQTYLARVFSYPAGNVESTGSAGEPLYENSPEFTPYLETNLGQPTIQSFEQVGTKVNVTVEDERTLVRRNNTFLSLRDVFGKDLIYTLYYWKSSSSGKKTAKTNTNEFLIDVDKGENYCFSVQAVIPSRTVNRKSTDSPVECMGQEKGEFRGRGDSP

B1: recombinant factor VIIa (Novo-Nordisk) (protein)
chain: ANAFLEELRPGSLERECKEEQCSFEEAREIFKDAERTKLFWISYSDGDQCASSPCQNGGSCKDQLQSYICFCLPAFEGRNCETHKDDQLICVNENGGCEQYCSDHTGTKRSCRCHEGYSLLADGVSCTPTVEYPCGKIPILEKRNASKPQGRIVGGKVCPKGECPWQVLLLVNGAQLCGGTLINTIWVVSAAHCFDKIKNWRNLIAVLGEHDLSEHDGDEQSRRVAQVIIPSTYVPGTTNHDIALLRLHQPVVLTDHVVPLCLPERTFSERTLAFVRFSLVSGWGQLLDRGATALELMVLNVPRLMTQDCLQQSRKVGDSPNITEYMFCAGYSDGSKDSCKGDSGGPHATHYRGTWYLTGIVSWGQGCATVGHFGVYTRVSQYIEWLQKLMRSEPRPGVLLRAPFP
B2: tTF-GRGDSP fusion polypeptide with N-terminal affinity tag (other)
chain: T7 chain
notes: It was biotinylated for the FACS assay; also called tTF-RGD

Key:
[1] = molecular target: T1, tTF-GNGRAHA fusion polypeptide with …
[2] = molecular target: T2, tTF-GCVLNGRMEC fusion polypeptide
[3] = molecular target: T3, tTF-GALNGRSHAG fusion polypeptide
[4] = molecular target: T4, tTF-GCNGRCVSGCAGRC fusion polypeptide
[5] = molecular target: T5, truncated human tissue factor tTF1-218
[6] = molecular target: the fusion polypeptides (tTF fusion polypeptides)
[7] = molecular target: T6, tTF-GCNGRCG fusion polypeptide
[8] = molecular target: T7, tTF-GRGDSP fusion polypeptide with …
[9] = molecular target: T8, integrin αvβ3 on cultivated human endothelial cells (human, UniProt P06756 31-1048; P05106 27-788); test: FACS, biotinylated protein (0.1 µM) on human endothelial cells in suspension, streptavidin-phycoerythrin detection; reference tTF
T8 construct: whole, on cells; The cells express αvβ3 naturally; also called αvβ3 on endothelial cells
T8 sequence (P06756 31-1048, chain 1 of 2): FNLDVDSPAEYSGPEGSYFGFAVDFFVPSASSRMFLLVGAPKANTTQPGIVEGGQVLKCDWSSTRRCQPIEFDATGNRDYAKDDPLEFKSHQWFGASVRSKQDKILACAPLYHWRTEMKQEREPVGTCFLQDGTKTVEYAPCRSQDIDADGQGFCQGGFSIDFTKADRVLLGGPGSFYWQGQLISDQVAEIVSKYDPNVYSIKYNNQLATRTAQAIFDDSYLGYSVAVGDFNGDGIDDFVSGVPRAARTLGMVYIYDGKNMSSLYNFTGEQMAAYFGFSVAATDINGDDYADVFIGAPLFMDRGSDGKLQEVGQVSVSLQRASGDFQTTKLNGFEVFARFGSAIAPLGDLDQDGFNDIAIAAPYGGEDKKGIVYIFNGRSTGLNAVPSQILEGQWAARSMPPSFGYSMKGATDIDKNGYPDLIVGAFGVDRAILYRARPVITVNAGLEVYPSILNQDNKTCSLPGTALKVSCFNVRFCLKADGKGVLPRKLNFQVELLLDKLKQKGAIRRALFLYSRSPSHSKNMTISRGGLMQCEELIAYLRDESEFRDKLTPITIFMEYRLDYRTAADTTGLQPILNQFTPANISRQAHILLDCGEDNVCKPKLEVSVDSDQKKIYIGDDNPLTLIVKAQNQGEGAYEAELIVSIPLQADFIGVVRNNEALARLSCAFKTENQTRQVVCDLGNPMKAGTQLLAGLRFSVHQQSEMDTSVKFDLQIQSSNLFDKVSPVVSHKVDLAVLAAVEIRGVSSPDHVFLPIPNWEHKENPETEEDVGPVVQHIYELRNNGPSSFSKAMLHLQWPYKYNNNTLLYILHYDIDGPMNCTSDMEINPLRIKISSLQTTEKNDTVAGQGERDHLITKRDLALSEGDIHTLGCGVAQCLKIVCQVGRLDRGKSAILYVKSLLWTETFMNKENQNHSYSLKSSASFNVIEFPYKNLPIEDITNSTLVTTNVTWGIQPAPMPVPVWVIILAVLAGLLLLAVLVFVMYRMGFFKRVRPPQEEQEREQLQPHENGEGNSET
T8 sequence (P05106 27-788, chain 2 of 2): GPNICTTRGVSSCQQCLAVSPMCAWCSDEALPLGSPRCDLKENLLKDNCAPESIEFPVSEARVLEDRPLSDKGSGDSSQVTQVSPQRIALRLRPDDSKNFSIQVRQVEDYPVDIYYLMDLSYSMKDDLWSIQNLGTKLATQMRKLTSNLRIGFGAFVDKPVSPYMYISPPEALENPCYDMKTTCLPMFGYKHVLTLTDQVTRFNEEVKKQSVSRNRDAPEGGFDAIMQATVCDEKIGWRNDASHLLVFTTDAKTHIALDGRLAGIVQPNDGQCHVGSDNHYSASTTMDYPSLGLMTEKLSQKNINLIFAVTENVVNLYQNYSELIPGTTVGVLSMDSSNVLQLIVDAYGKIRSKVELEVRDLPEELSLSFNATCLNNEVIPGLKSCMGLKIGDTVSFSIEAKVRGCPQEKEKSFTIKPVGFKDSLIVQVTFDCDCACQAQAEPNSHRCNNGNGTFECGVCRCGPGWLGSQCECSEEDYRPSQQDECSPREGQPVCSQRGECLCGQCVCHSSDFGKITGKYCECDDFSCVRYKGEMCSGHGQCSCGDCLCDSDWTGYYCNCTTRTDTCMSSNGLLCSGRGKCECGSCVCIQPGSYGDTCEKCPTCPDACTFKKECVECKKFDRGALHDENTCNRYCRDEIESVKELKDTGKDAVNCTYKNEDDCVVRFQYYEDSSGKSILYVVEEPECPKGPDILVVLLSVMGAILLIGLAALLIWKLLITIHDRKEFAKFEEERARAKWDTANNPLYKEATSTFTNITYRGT

fluorescence intensity, fold over tTF [9] [fold] | Binder | proteolytic activation of FX via FVIIa in the presence of phospholipids (chromogenic FXa assay) [1] | proteolytic activation of FX via FVIIa in the presence of phospholipids (chromogenic FXa assay) [2] | proteolytic activation of FX via FVIIa in the presence of phospholipids (chromogenic FXa assay) [3] | proteolytic activation of FX via FVIIa in the presence of phospholipids (chromogenic FXa assay) [4] | proteolytic activation of FX via FVIIa in the presence of phospholipids (chromogenic FXa assay) [5] | Michaelis constant (Km) for activation of FX by FVIIa/tTF fusion protein [6] | proteolytic activation of FX via FVIIa in the presence of phospholipids (chromogenic FXa assay) [7] | proteolytic activation of FX via FVIIa in the presence of phospholipids (chromogenic FXa assay) [8]
– | B1 | both tTF and the tTF fusion polypeptides are functionally active under these conditions | both tTF and the tTF fusion polypeptides are functionally active under these conditions | both tTF and the tTF fusion polypeptides are functionally active under these conditions | both tTF and the tTF fusion polypeptides are functionally active under these conditions | both tTF and the tTF fusion polypeptides are functionally active under these conditions | in the range 0.12-1.2 nM | both tTF and the tTF fusion polypeptides are functionally active under these conditions | both tTF and the tTF fusion polypeptides are functionally active under these conditions
8 | B2 | – | – | – | – | – | – | – | –
